Experimental data: patent US20260041733A1, “COMBINATION FOR USE IN OPHTHALMOLOGY” (Dompe' farmaceutici SPA, priority 2022, published 2026)

Key:
[1] = system: Dorsal Root Ganglia (DRG) neurons; assay: Levels of autophagy pathway proteins (Western blot) in F11 cells differentiated into DRGs; type: cell-based; settings: 24 h
Experimental: The effect of NGF on autophagy in the presence and absence of sesamin was assessed on Dorsal Root Ganglia (DRG) neurons, involved in the development of NGF sensory side effects, by analysing the impact of the different treatments on the levels of the above proteins involved in autophagy pathway. F11 cells were cultured in Dulbecco's modified Eagle's medium (DMEM, Cat #D6546; Sigma-Aldrich, St. Louis, MO, USA), with 10% fetal bovine serum, 2 mM glutamine (Sigma-Aldrich, USA). Cells were incubated at 37° C. in a humidified atmosphere with 5% CO2. Cells were then seeded at 7000 cells/cm^2 and were maintained in a low serum medium for almost 2 weeks to induce differentiation into DRGs. The complete composition of the low serum medium was: DMEM supplemented 2 mM glutamine, 1% FBS (Sigma-Aldrich, St. Louis, MO, USA). The medium was replaced every 2 days. Immunofluorescence was used to confirm cell differentiation (data not shown). F11 cells maintained in 10% FBS medium were used as control (control, undifferentiated). Morphological and functional analyses were performed after two weeks of treatment with low serum, at complete differentiation of the cells. The undifferentiated control cells underwent the same analysis at 7 days to avoid dramatic cell death due to confluence. The fully differentiated cells were treated with 1 μM rhNGF alone or in combination with 30 nM Sesamin, for 24 h. Control and treated cells were collected and lysed in ice-cold RIPA buffer (Thermo Scientific, USA) with freshly added protease and phosphatase inhibitors. Protein lysates (30 μg) were separated on 4%-12% precast gel using MOPS or MES buffers (Thermo Scientific, USA) depending on the size of the proteins of interest. Then proteins were electroblotted on polyvinyldifluoride membrane (PVDF; Sigma, St Loius, USA) and nonspecific binding sites were blocked in Blocking buffer (Thermo Scientific) for 15 minutes at RT. Afterward, membranes were incubated overnight at 4° C. with the following primary antibodies, diluted in Blocking buffer: rabbit anti-Atg5 1:1000 (Abcam, ab228668, UK), rabbit anti-LC3 1:2000 (Abcam, ab192890, UK), rabbit anti-Beclin 1:2000 (Abcam, ab207612, UK), rabbit anti-P62 1:500 (Abcam, ab91526, UK), rabbit anti-vinculin 1:1000 (Abcam, ab219649, UK) and HRP-conjugated Actin 1:1000 (Cell Signaling, #5125, USA). As secondary antibodies, peroxidase-conjugated anti-rabbit IgG 1:10000 (Abcam, UK) were used. Immunoreactive bands were visualized by ECL (Thermo Scientific, USA), according to the manufacturer's instructions. The relative optical densities of the immunoreactive bands were determined and normalized with respect to those of the anti-Vinculin or anti-Actin (depending on the molecular weight of the analyzed protein and the gel/buffer used), using ImageJ software. The phosphorylated forms were normalized upon the total form.

[2] = topical administration, 200 μg/mL NGF; cited from earlier work
[3] = In-use stability of rhNGF lyophilized formulation (Formulation 6) after reconstitution: oxidized NGF impurity; type: physicochemical
Experimental: An in-use stability study of said rhNGF lyophilized formulation (according to Formulation 6) after reconstitution with sesamin-containing reconstitution solvent B or with WFI was carried out as follows.
The tests were performed on said lyophilized formulation reconstituted in solvent B or in WFI, stored at different temperatures (+2/+8° C. or 25° C.-60% Relative Humidity), over 28 days, to verify the possible impurity formation in rhNGF reconstituted liquid formulations, in glass vials.
The impurity was determined as the percentage (w/w) of oxidized NGF in respect of the total NGF comprised in the reconstituted liquid formulation.

patients = settings: cited from earlier work
male Sprague-Dawley rats = assay: Eye wiping test (ocular discomfort after ocular administration); type: in vivo; settings: 3.5 μg/ml sesamin with 20 μg/ml rhNGF in Vehicle 2
Experimental: An eye wiping test was carried out to evaluate ocular discomfort induced by ocular administration of rhNGF alone or in combination with Sesamin.
The experiments were performed on male Sprague-Dawley rats (300-320 g), Charles River, Italy) housed in the animal care facility of the Department of Pharmacy, University of Naples. Food and water were available ad libitum.
Rats were divided in 4 experimental groups:
Animals were treated with 20 μg/ml of rhNGF in Vehicle 1 (n=8);
Animals were treated with 20 μg/ml of rhNGF and 3.5 μg/ml sesamin in Vehicle 2 (n=8) All compositions tested were prepared immediately before use from lyophilized placebo or rhNGF reconstituted in a volume of 1 mL of the vehicle.
The treatments described above were administered as eye drops 1 time per day, in a volume of 10 μL. Following the application, the eye wiping test was performed.
Animals were placed on a 50×50 cm table for 10 min habituation period. 10 μL of solutions were applied into the left eye of animals and the number of eye wipes was counted for 30 min.
All data are presented as the mean±SEM. Analysis of data were conducted using GraphPad Prism 8. Statistical analysis was performed by two-way ANOVA followed by Tukey's test for multiple comparisons, as appropriate. Statistical significance was set at *p<0.05.

[4] = differentiated F11 cells, 1 μM rhNGF alone, vs control (FIG. 1)

For “rhNGF: recombinant human nerve growth factor, amino acid sequence SEQ ID NO. 1 and/or SEQ ID NO. 2”, the “level of P62 (autophagy-specific substrate)” value [1, 4] was “decreased”, the “levels of Atg5” value [1, 4] was “significantly increased” and the “levels of Beclin” value [1, 4] was “significantly increased”. For the same molecule, the “levels of LC3-I” value [1, 4] was “increased levels”, the “levels of LC3-II” value [1, 4] was “increased levels” and the “levels of the protein in all ocular tissues, included the retina and optic nerve” value [2] was “high levels”. For the same molecule, the “time of peak increase in ocular tissues after administration” value [2] was 6 h, the “NGF oxidation product %” value ([3]; reconstituted with WFI, +2/+8° C., day 0) was 4.00% and the “NGF oxidation product %” value ([3]; reconstituted with WFI, +2/+8° C., day 28) was 4.86%. The “NGF oxidation product %” value ([3]; reconstituted with WFI, +25° C./60% Relative Humidity, day 0) was 4.00%, the “NGF oxidation product %” value ([3]; reconstituted with WFI, +25° C./60% Relative Humidity, day 28) was 6.48% and the “NGF oxidation product %” value ([3]; reconstituted with reconstitution solvent B (sesamin 1.5 μg/mL), +2/+8° C., day 0) was 3.11%. The “NGF oxidation product %” value ([3]; reconstituted with reconstitution solvent B (sesamin 1.5 μg/mL), +2/+8° C., day 28) was 4.21%, the “NGF oxidation product %” value ([3]; reconstituted with reconstitution solvent B (sesamin 1.5 μg/mL), +25° C./60% Relative Humidity, day 0) was 3.11% and the “NGF oxidation product %” value ([3]; reconstituted with reconstitution solvent B (sesamin 1.5 μg/mL), +25° C./60% Relative Humidity, day 28) was 5.06%. For the same molecule, the “primary side effect reported by patients after topical ocular administration” value (patients; clinical trials or approved indications, mild and transient) was “eye discomfort” and the “safety of topical administration on the ocular surface” value (patients; clinical trials) was “safe”.
For `c1cc2c(cc1[C@H]1OC[C@H]3[C@@H]1CO[C@@H]3c1ccc3c(c1)OCO3)OCO2` [sesamin, 5,5′-[(1S,3aR,4S,6aR)-Tetrahydro-1H,3H-furo[3,4-c]furan-1,4-diyl]bis(2H-1,3-benzodioxole)], the autophagy ([1]; 30 nM Sesamin combined with 1 μM rhNGF, vs NGF alone) was “significantly reduced” and the “eye discomfort induced by rhNGF” value (male Sprague-Dawley rats) was “can relieve the eye discomfort”.
